Assay results published in patent publication US20260078157A1.

Experiments:
[1] = target: human KLB and FGFR1c overexpressed on HEK293 cells (human) (UniProt Q86Z14); experiment: cell-based or functional assay
[2] = target: surface of live cells; experiment: association and dissociation on the surface of live cells; method not stated

UniProt Q86Z14, sequence (Q86Z14 whole entry, chain 1 of 2): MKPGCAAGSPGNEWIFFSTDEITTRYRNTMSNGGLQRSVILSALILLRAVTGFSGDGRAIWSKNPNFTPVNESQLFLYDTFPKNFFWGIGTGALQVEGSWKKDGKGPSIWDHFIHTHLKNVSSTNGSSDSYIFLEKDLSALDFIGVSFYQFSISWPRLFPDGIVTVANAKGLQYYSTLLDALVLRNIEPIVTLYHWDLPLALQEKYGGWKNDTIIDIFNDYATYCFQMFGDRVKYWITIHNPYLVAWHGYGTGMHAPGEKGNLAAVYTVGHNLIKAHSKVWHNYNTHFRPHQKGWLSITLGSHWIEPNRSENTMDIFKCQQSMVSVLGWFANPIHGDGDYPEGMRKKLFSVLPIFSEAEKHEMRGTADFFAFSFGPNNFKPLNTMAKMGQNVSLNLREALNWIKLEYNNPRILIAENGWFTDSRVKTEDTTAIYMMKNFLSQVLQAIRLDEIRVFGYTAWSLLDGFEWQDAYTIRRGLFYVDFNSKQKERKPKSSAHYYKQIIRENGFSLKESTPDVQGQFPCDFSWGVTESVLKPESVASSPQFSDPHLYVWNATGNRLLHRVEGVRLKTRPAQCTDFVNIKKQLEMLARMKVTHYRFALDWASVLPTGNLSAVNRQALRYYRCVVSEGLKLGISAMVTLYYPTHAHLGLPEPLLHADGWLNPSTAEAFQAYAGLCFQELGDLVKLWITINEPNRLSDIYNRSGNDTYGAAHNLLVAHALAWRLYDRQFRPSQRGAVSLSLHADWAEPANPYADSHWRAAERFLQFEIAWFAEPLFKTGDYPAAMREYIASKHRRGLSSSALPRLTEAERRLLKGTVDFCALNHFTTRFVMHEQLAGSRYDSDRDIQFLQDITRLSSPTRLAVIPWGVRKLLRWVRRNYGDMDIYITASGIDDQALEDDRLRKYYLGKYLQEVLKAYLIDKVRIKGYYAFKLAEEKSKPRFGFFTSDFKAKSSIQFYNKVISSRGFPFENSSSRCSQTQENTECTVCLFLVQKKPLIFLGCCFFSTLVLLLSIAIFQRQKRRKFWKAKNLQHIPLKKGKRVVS
UniProt Q86Z14, sequence (P11362 22-822, chain 2 of 2, further chain): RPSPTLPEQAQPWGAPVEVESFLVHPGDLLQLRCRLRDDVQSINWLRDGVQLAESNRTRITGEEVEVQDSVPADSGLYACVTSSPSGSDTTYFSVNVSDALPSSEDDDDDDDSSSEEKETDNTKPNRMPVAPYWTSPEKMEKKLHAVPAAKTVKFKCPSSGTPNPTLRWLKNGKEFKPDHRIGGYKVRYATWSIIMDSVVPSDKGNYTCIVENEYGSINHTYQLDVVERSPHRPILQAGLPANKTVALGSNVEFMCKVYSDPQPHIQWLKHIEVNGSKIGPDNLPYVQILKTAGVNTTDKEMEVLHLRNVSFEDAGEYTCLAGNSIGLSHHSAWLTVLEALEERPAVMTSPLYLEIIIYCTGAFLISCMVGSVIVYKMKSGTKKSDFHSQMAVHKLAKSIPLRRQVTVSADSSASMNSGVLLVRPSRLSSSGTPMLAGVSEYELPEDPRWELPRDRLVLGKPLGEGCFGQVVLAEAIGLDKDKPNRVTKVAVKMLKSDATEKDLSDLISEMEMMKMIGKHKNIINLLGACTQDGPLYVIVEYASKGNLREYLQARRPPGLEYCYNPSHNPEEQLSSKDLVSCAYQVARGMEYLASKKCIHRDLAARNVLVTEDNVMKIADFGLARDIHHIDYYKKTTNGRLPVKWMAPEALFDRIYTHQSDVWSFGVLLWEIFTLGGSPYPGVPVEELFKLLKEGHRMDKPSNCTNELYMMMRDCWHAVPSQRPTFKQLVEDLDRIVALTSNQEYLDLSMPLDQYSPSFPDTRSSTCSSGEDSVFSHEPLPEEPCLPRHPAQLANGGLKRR

- cell-based potency assay, Elk1 luciferase reporter in HEK293 cells overexpressing human KLB and FGFR1c; potency relative to ¾ EFX [1]: 2 fold
- fold more stable interaction, compared to either free FGF21 or a single FGF21 domain linked to an Fc domain [2]: > 100 fold
Substance: Efruxifermin (EFX) (Fc fusion)
